Test results reported in patent US20100011462A1, “FLAVIN MONOOXYGENASES AND TRANSCRIPTION FACTORS INVOLVED IN GLUCOSINOLATE BIOSYNTHESIS” (University of Copenhagen, priority 2006, published 2010).

B1: At1g65860: flavin-containing monooxygenase (FMO) from A. thaliana, SEQ ID NO 4; also its overexpression in planta (protein, listed as Arabidopsis thaliana)
chain: MAPTQNTICSKHVAVIGAGAAGLVTARELRREGHTVVVFDREKQVGGLWNYSSKADSDPLSLDTTRTIVHTSIYESLRTNLPRECMGFTDFPFVPRIHDISRDSRRYPSHREVLAYLQDFAREFKIEEMVRFETEVVCVEPVNGKWSVRSKNSVGFAAHEIFDAVVVCSGHFTEPNVAHIPGIKSWPGKQIHSHNYRVPGPFNNEVVVVIGNYASGADISRDIAKVAKEVHIASRASESDTYQKLPVPQNNLWVHSEIDFAHQDGSILFKNGKVVYADTIVHCTGYKYYFPFLETNGYININENRVEPLYKHVFLPALAPSLSFIGLPGMAIQFVMFEIQSKWVAAVLSGRVILPSQDKMMEDIIEWYATLDVLGIPKRHTHKLGKISCEYLNWIAEECHCSPVENWRIQEVERGFQRMVSHPEIYRDEWDDDDLMEEAYKDFARKKLISSHPSYFLES
B2: At1g62560: flavin-containing monooxygenase (FMO) from A. thaliana, SEQ ID NO 2; also its overexpression in planta (protein, listed as Arabidopsis thaliana)
chain: MAPAQNQITSKHVAVIGAGPAGLITSRELRREGHSVVVFEREKQVGGLWVYTPKSDSDPLSLDPTRSKVHSSIYESLRTNVPRESMGVRDFPFLPRFDDESRDARRYPNHREVLAYIQDFAREFKIEEMIRFETEVVRVEPVDNGNWRVQSKNSGGFLEDEIYDAVVVCNGHYTEPNIAHIPGIKSWPGKQIHSHNYRVPDPFENEVVVVIGNFASGADISRDIAKVAKEVHIASRAREPHTYEKISVPQNNLWMHSEIDTTHEDGSIVFKNGKVIFADSIVYCTGYKYNFPFLETNGYLRIDEKRVEPLYKHVFPPALAPGLAFVGLPAMGIVFVMFEIQSKWVAAVLSGRVTLPSTDKMMEDINAWYASLDALGIPKRHTHTIGRIQSEYLNWVAKESGCELVERWRGQEVDGGYLRLVAHPETYRDEWDDDELIEEAYNDFSRKKLISVDPSYYLENGR

Columns and labels:
At1g12140 = target: T1, At1g12140 (Arabidopsis thaliana, UniProt A8MRX0); assay: Heterologous expression of At1g12140 in E. coli, desulfo-glucosinolate substrate mix; format: biochemical; settings: desulfo-glucosinolates from Arabidopsis Col-0 seeds as substrate mix
T1 construct: made in house; host or cells: E. coli
T1 sequence (A8MRX0 1-459): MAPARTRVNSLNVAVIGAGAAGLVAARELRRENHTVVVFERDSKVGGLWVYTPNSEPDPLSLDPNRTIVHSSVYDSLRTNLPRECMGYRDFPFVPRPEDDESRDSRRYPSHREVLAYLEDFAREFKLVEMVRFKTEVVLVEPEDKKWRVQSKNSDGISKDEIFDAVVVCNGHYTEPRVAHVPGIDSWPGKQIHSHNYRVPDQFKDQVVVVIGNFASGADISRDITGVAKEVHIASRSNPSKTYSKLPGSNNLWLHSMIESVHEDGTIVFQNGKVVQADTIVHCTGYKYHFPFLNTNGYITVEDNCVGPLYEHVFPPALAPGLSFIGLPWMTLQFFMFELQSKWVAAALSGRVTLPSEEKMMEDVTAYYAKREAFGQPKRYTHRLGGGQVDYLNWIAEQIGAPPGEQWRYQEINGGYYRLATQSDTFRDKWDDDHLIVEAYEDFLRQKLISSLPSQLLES
Description: (§1) FIG. 15—Heterologous expression of At1g12140 in E. coli using desulfo-glucosinolates from glucosinolates from Arabidopsis Col-0 seeds as substrate mix.

[1] = Activity of FMOs of the invention in E. coli or in seeds using a variety of substrates; format: biochemical, Arabidopsis thaliana; settings: for S-oxygenation activity: desulfo and intact glucosinolates; for substrate specificity: methylthio glucosinolates in Arabidopsis
Description: FIG. 11—Heterologous expression of At1g62560 in E. coli using 4MTB as substrate, with an empty vector as control.
FIG. 13—Heterologous expression of At1g62540 in E. coli using 4MTB as substrate, with an empty vector as control.
as §1
FIG. 17—Heterologous expression of At1g62570 in E. coli using desulfo-glucosinolates from glucosinolates from Arabidopsis Col-0 seeds as substrate mix, with an empty vector as control.
FIGS. 11-18 show the activity of At1g62560, At1g65860, At1g62540, At1g12140 and At1g62570 in E. coli or in seeds using a variety of substrates.

[2] = test system: Arabidopsis thaliana Col-0; assay: 4MTB and 4MSB levels in At1g65860 and At1g62560 overexpression lines; format: in vivo; settings: expressed constitutively
Protocol: FIG. 5—4-methylthiobutyl glucosinolate levels in rosette leaves from 24 day old wild type columbia and transgenic At1g65860 and At1g62560 overexpression lines. Quantities are given in nmol/mg fresh weight ±one standard deviation and are the mean of extractions from four individual plants. Two independent lines were analysed for each construct. The lines H and AT for 35S overexpression of At1g65860 and line 9 and 11 for 35S overexpression of At1g62560.
FIG. 12—4-6 fold increase in 4MSB levels in seeds in overexpressors of At1g62560 and At1g65860.
In another separate experiment a mix of heterozygous and homozygous 35S:At1g62560 and 35S:At1g65860 as well as Arabidopsis thaliana, ecotype Columbia, were used.
Three-four leaves (20-80 mg) were harvested from each plant and the material freeze-dried O/N. After adding one ball bearing to each tube, the tissue was homogenized by shaking at a frequency of 30 s^−1 for one min on a Retsch Mixer Mill 303 (Retsch, Haan, Germany). 250 μl of 85% methanol was added to each tube and the entire box vortexed for 30 s. For glucosinolate extraction from seeds (10-20 mg) 250 μl of 85% methanol was added before homogenization. The samples were mixed for two minutes by vortexing. […]

Row | Molecule | S-oxygenation activity (At1g12140) | S-oxygenation activity [1] | substrate specificity [1] | 4-methylthiobutyl glucosinolate levels [2]
1 | CSCCCCCCCCC(=NOS(=O)(=O)O)S[C@@H]1O[C@H](CO)[C@@H](O)[C@H](O)[C@H]1O [8MTO, 8-methylthiooctyl glucosinolate] | high activity | – | – | –
2 | B1 | – | S-oxygenation activity | broad specificity towards all methylthio (MT) glucosinolates | reduced
3 | B2 | – | S-oxygenation activity | broad specificity towards all methylthio (MT) glucosinolates | reduced
